Assay [1] concerns Human dermal blood endothelial cells (HDBEC). The experiment in a line: HDBEC stimulation (flow cytometry, IL-6 Elisa). Format: cell-based. Conditions: 100 ng/ml in combination with TNF-α (100 U/ml), 24 h. Here is the method: FIG. 10: Human dermal blood endothelial cells (HDBEC) were treated with: IL-17 vehicle (Ctrl), IL-17 or FM-0410 (100 ng/ml), alone or in combination with TNF-α (100 U/ml) for 24 h. Cells were washed, gated in their totality and singlet before the identification of IL-17Rs (RA and RC) (A, B), ICAM (C) and VCAM (D) expression. Histogram values (expressed as MIF) indicate the total positive cells (A-D). In (E) are shown phase-contrast micrographs of confluent monolayers of untreated or treated (as reported before) HDBEC. Total adhesion (expressed as INT/mm^2, F) and % of transmigration (G) are calculated with Image Pro programme (DataCell, Finchampstead). Inflammatory supernatants from all experimental conditions were assayed by Elisa for IL-6 (H) expressed in pg/ml. Data were presented as means±S.D. of n=3 healthy donors. Statistical analysis was conducted by one-way ANOVA followed by Bonferroni's for multiple comparisons. ^#P≤0.05, ^##P≤0.01, ^###P≤0.001, ^####P≤0.0001 vs Ctrl group; *P≤0.05 vs TNF-α+IL-17 group; ^∘P≤0.05, ^∘∘∘P≤0.001, ^∘∘∘∘P≤0.0001 vs TNF-α group.
Human dermal blood endothelial cells (HDBEC): Primary human dermal blood endothelial cells (HDBECs) were purchased from PromoCell and cultured in the manufacturer's recommended endothelial cell growth medium MV (PromoCell, Heidelberg, Germany). HDBECs were seeded onto 12-well tissue culture plates after 4 passages at a seeding density yielding confluent monolayers. HDBEC monolayers were washed in endothelial cell growth medium MV warmed to 37° C. and stimulated with IL-17 or FM-0410 (100 ng/ml) alone or in a combination with TNF-α (100 U/ml) for 24 h at 37° C. Cells were stimulated for 24 h, before staining with IL-17Rs (RA or RC) or ICAM/VCAM adhesion receptors using a Flow cytometry assay. Supernatants were collected and measured to evaluate IL-6 or TNF-α levels.
Flow Cytometry: HDBEC, collected after 24 h of treatment, were washed with PBS without Ca^2+ and Mg^2+ containing 25 mM lactose for 20 min at room temperature with occasional mixing. […] Protein expression was analysed by flow cytometry on a Dako CyAn (Beckman Coulter, High Wycombe, U.K.), and data were analysed using MRFIow and FlowJo software operation. The unspecific binding of antibodies was quantified by using corresponding isotype controls.
Elisa assay: The levels of IL-6 at 24 h were measured using commercially available enzyme-linked immunosorbent assay kits (ELISA kit, R&D System, Milan, Italy) according to the manufacturer's instructions. […] The addition of 100 μl of the substrate and stop solution represented the last steps before the reading of absorbance (measured at 450 nm) on a microplate reader. Antigen levels in the samples were determined using a standard curve and expressed as pg/ml.

Assay [2] deals with NIH-3T3 mouse embryonic fibroblast cells. The experiment in a line: IL-6 secretion by NIH-3T3 fibroblasts (Elisa). Format: cell-based. Conditions: NIH-3T3 cells, 50 ng/ml, vs control / IL-17 group. As to the method: FIG. 2: NIH-3T3 mouse embryonic fibroblast cells were treated with IL-17 vehicle (Ctrl), IL-17 (50 ng/ml) alone (IL-17) or peptide (FM-0410) (50 ng/ml) and supernatants were assayed by Elisa for IL-6. Data were expressed as pg/ml and presented as means±S.D. of three separate independent experiments. Statistical analysis was conducted by one-way ANOVA followed by Bonferroni's for multiple comparisons. ^##P≤0.01, ^###P≤0.005 vs Ctrl group; *P≤0.05 vs IL-17 group. In order to assess the biological activity of synthesized peptide, we carried out in vitro studies using NIH-3T3 mouse embryonic fibroblast cells. […] With this in vitro system we measured IL-17 activity by its ability to induce IL-6 secretion by NIH-3T3 mouse embryonic fibroblast cells. Methods: The levels of IL-6 in the cellular and air pouch inflammatory supernatants at 24 h were measured using commercially available enzyme-linked immunosorbent assay kit (ELISA kit, R&D System, Milan, Italy) according to the manufacturer instructions. […] The addition of 100 μl of the substrate and stop solution represented the last steps before the reading of absorbance (measured at 450 nm) on a microplate reader. Antigen levels in the samples were determined using a standard curve and expressed as pg/ml. […]

B1: IL-17: recombinant mouse IL-17 purchased from R&D System; full-length cytokine used as comparator and stimulus (protein, UniProt Q62386 26-158, looked up)
Interleukin-17A: AAIIPQSSACPNTEAKDFLQNVKVNLKVFNSLGAKVSSRRPSDYLNRSTSPWTLHRNEDPDRYPSVIWEAQCRHQRCVNAEGKLDHHMNSVLIQQEILVLKREPESCPFTFRVEKMLVGVGCTCVASIVRQAA
As for B1, in assay [1], the ICAM expression result is given as “upregulation”, the IL-17RA receptor expression entry was “No effects”, the IL-17RC receptor expression result is recorded as “No effects” and the VCAM expression entry is “upregulation”. In assay [2], the IL-6 release entry is “significant increase in IL-6 release compared to control group”.
